Publication PMC6513101, “Experimentally guided computational antibody affinity maturation with de novo docking, modelling and rational design” (PLoS Computational Biology, 2019)
Numbering of substitutions follows the chain as printed. Numbers in names are those of the source.

T1: murine CCL20 (mouse, UniProt O89093 28-97)
T1 chain: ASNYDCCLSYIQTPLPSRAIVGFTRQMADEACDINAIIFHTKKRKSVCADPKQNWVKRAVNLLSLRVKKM

B1: AB1 affinity maturation variant 9 (H:T110W) (antibody, V domains shown)
VH: QVQLQQSGAELAKPGSSVKISCKAYGSSFTTNSIHWIKQTTGQALEWTGYIAPGSGGARYNEKFKGKATLTVDKSSGTAYMQLSSLTPVDTAVYYCALNIGWNPFTYWGQGTLVTVSS
VL: DIVMTQGALPNPVPSGESVSITCRSSKSLLYSDGKTYLNWYLQRPGQSPQLLIYWMSTRASGVSDRFSGSGSGTDFTLKISGVEAEDVGVYYCQQGLEFPRTFGSGTKLEIK
notes: IMGT numbering; IgG1, as m1; source: HEK293FT, transiently transfected, purified (Protein A)
B2: AB1 affinity maturation variant 11 (H:N113R) (antibody, V domains shown)
VH: B1 VH with W102T, N103R
VL: B1 VL
notes: as for B1
B3: AB1 affinity maturation variant 19 (L:F114R) (antibody, V domains shown)
VH: B1 VH with W102T
VL: B1 VL with F99R
notes: as for B1
B4: AB1 affinity maturation variant 3 (H:T36Q) (antibody, V domains shown)
VH: B1 VH with T31Q, W102T
VL: B1 VL
notes: as for B1
B5: AB1 alanine variant 12 (H:N107A) (antibody, V domains shown)
VH: B1 VH with N99A, W102T
VL: B1 VL
notes: as for B1
B6: AB1 alanine variant 10 (H:S28A) (antibody, V domains shown)
VH: B1 VH with S27A, W102T
VL: B1 VL
notes: as for B1
B7: AB1 affinity maturation variant 2 (H:S29D) (antibody, V domains shown)
VH: B1 VH with S28D, W102T
VL: B1 VL
notes: as for B1
B8: AB1 alanine variant 16 (L:K36A) (antibody, V domains shown)
VH: B1 VH with W102T
VL: B1 VL with K35A
notes: as for B1
B9: AB1 alanine variant 15 (L:D34A) (antibody, V domains shown)
VH: B1 VH with W102T
VL: B1 VL with D33A
notes: as for B1
B10: AB1 affinity maturation variant 18 (L:Y38R) (antibody, V domains shown)
VH: B1 VH with W102T
VL: B1 VL with Y37R
notes: as for B1
B11: AB1 alanine variant 13 (H:T110A) (antibody, V domains shown)
VH: B1 VH with W102A
VL: B1 VL
notes: as for B1
B12: AB1 affinity maturation variant 13 (H:T116R) (antibody, V domains shown)
VH: B1 VH with W102T, T106R
VL: B1 VL
notes: as for B1
B13: AB1 alanine variant 17 (L:Y38A) (antibody, V domains shown)
VH: B1 VH with W102T
VL: B1 VL with Y37A
notes: as for B1
B14: AB1 affinity maturation variant 20 (L:Q106Y) (antibody, V domains shown)
VH: B1 VH with W102T
VL: B1 VL with Q95Y
notes: IMGT numbering; IgG1, as m1; also called neutral control mutation; source: HEK293FT, transiently transfected, purified (Protein A)
B15: AB1 affinity maturation variant 15 (L:D34Q) (antibody, V domains shown)
VH: B1 VH with W102T
VL: B1 VL with D33Q
notes: as for B1
B16: AB1 affinity maturation variant 8 (H:I108R) (antibody, V domains shown)
VH: B1 VH with I100R, W102T
VL: B1 VL
notes: as for B1
B17: AB1 affinity maturation variant 4 (H:N37T) (antibody, V domains shown)
VH: B1 VH with N32T, W102T
VL: B1 VL
notes: as for B1
B18: AB1 alanine variant 4 (H:N113A) (antibody, V domains shown)
VH: B1 VH with W102T, N103A
VL: B1 VL
notes: as for B1
B19: AB1 alanine variant 9 (H:T35A, H:N107A, L:R116A) (antibody, V domains shown)
VH: B1 VH with T30A, N99A, W102T
VL: B1 VL with R101A
notes: as for B1
B20: AB1 affinity maturation variant 12 (H:F115H) (antibody, V domains shown)
VH: B1 VH with W102T, F105H
VL: B1 VL
notes: as for B1
B21: AB1 alanine variant 14 (L:Y31A) (antibody, V domains shown)
VH: B1 VH with W102T
VL: B1 VL with Y31A
notes: as for B1
B22: AB1 alanine variant 1 (H:S29A) (antibody, V domains shown)
VH: B1 VH with S28A, W102T
VL: B1 VL
notes: as for B1
B23: AB1 alanine variant 22 (L:Y31A/D34A) (antibody, V domains shown)
VH: B1 VH with W102T
VL: B1 VL with Y31A, D33A
notes: IMGT numbering; IgG1, as m1; intermediate construct; source: HEK293FT, transiently transfected, purified (Protein A)
B24: AB1 alanine variant 3 (H:R66A) (antibody, V domains shown)
VH: B1 VH with R59A, W102T
VL: B1 VL
notes: as for B1
B25: AB1 affinity maturation variant 10 (H:T110F) (antibody, V domains shown)
VH: B1 VH with W102F
VL: B1 VL
notes: as for B1
B26: AB1 alanine variant 20 (L:S26A) (antibody, V domains shown)
VH: B1 VH with W102T
VL: B1 VL with S26A
notes: IMGT numbering; IgG1, as m1; also called control; source: HEK293FT, transiently transfected, purified (Protein A)
B27: AB1 alanine variant 23 (H:T35A/N107A/L:Y31A) (antibody, V domains shown)
VH: B1 VH with T30A, N99A, W102T
VL: B1 VL with Y31A
notes: as for B23
B28: AB1 affinity maturation variant 17 (L:K36R) (antibody, V domains shown)
VH: B1 VH with W102T
VL: B1 VL with K35R
notes: as for B1
B29: AB1 affinity maturation variant 7 (H:A65Y) (antibody, V domains shown)
VH: B1 VH with A58Y, W102T
VL: B1 VL
notes: as for B1
B30: AB1 affinity maturation variant 5 (H:G59Y) (antibody, V domains shown)
VH: B1 VH with G54Y, W102T
VL: B1 VL
notes: as for B1
B31: AB1 alanine variant 19 (H:Y26A) (antibody, V domains shown)
VH: B1 VH with Y25A, W102T
VL: B1 VL
notes: as for B26
B32: AB1 alanine variant 18 (L:R116A) (antibody, V domains shown)
VH: B1 VH with W102T
VL: B1 VL with R101A
notes: as for B1
B33: AB1 affinity maturation variant 14 (L:S32D) (antibody, V domains shown)
VH: B1 VH with W102T
VL: B1 VL with S32D
notes: as for B1
B34: AB1 alanine variant 2 (H:T35A) (antibody, V domains shown)
VH: B1 VH with T30A, W102T
VL: B1 VL
notes: as for B1
B35: AB1 alanine variant 6 (H:S29A, L:Y31A, L:Y38A) (antibody, V domains shown)
VH: B1 VH with S28A, W102T
VL: B1 VL with Y31A, Y37A
notes: as for B1
B36: AB1 alanine variant 11 (H:Y55A) (antibody, V domains shown)
VH: B1 VH with Y50A, W102T
VL: B1 VL
notes: as for B1
B37: AB1 alanine variant 21 (L:Y31A/Y38A) (antibody, V domains shown)
VH: B1 VH with W102T
VL: B1 VL with Y31A, Y37A
notes: as for B23
B38: AB1 affinity maturation variant 6 (H:G64T) (antibody, V domains shown)
VH: B1 VH with G57T, W102T
VL: B1 VL
notes: as for B1
B39: AB1 alanine variant 8 (H:T110A, L:Y31A, L:D34A) (antibody, V domains shown)
VH: B1 VH with W102A
VL: B1 VL with Y31A, D33A
notes: as for B1
B40: AB1 alanine variant 5 (H:Y55A, H:R66A, L:Y31A) (antibody, V domains shown)
VH: B1 VH with Y50A, R59A, W102T
VL: B1 VL with Y31A
notes: as for B1
B41: AB1 Fab fragment (Fab, V domains shown)
VH: B1 VH with W102T
VL: B1 VL
notes: Fab of m1; also called parental AB1 (Fab); source: papain cleavage of the purified antibody; purified by anion and cation exchange chromatography

biological target: T2, biotinylated murine CCL20 (Mus musculus, UniProt O89093, biotin); assay: ELISA; capture ELISA: plate-coated anti-mouse Fc antibody (1 ug/mL) captures the antibody variant (5 ug/mL); biotinylated muCCL20 titrated from 0 to 600 nM, 1 h; details: both partners purified
T2 construct: CCL20, mouse; recombinant; m2 with biotin; also called biotinylated muCCL20; muCCL20 antigen; source: in-house, standard mammalian cell expression; biotinylated

| binding result | fold reduction of binding affinity against WT AB1 [fold] | Binder |
| --- | --- | --- |
| binds | – | B1 |
| binds | – | B2 |
| binds | – | B3 |
| binds | – | B4 |
| no binding (tested: 600 nM) | – | B5 |
| binds | – | B6 |
| binds | – | B7 |
| – | 3 | B8 |
| no binding (tested: 600 nM) | – | B9 |
| binds | – | B10 |
| binds | – | B11 |
| binds | – | B12 |
| no binding (tested: 600 nM) | – | B13 |
| binds | – | B14 |
| binds | – | B15 |
| binds | – | B16 |
| binds | – | B17 |
| no binding (tested: 600 nM) | – | B18 |
| no binding (tested: 600 nM) | – | B19 |
| binds | – | B20 |

| binding result | fold reduction of binding affinity against WT AB1 [fold] | Binder |
| --- | --- | --- |
| binds | – | B21 |
| binds | – | B22 |
| no binding (tested: 600 nM) | – | B23 |
| binds | – | B24 |
| binds | – | B25 |
| binds | – | B26 |
| no binding (tested: 600 nM) | – | B27 |
| binds | – | B28 |
| binds | – | B29 |
| binds | – | B30 |
| binds | – | B31 |
| binds | – | B32 |
| binds | – | B33 |
| binds | – | B34 |
| no binding (tested: 600 nM) | – | B35 |
| no binding (tested: 600 nM) | – | B36 |
| no binding (tested: 600 nM) | – | B37 |
| binds | – | B38 |
| no binding (tested: 600 nM) | – | B39 |
| binds | – | B40 |

Biological target: T1, murine CCL20
Assay: SPR
Details: not given

| Kd [nM] | Binder |
| --- | --- |
| 9.1 | B41 |

Biological target: T1, murine CCL20
Assay: SPR
Details: not given
Remark: another data set of the same source

| koff [s⁻¹] | Binder |
| --- | --- |
| 0.0077 | B41 |

biological target: T3, murine CCL20 (Mus musculus, UniProt O89093); assay: SPR; Biacore T200; muCCL20 immobilised on a CM4 chip (~30 RU); Fab 0.02-50 nM at 100 uL/min; HBS-EP pH 7.4; 1:1 model; apparent KD = koff/kon; details: both partners purified
T3 construct: CCL20, mouse; recombinant; also called muCCL20; mouse CCL20; source: in-house, standard mammalian cell expression; purified

| binding result | Binder |
| --- | --- |
| binds | B41 |
